{"source": "the supplement of paper PMC6379048", "experiment_in_all_cases": "Kd (EC50 corrected by depletion factor)", "key": {"FUBP1": {"target": "T1, FUBP1 (UniProt Q96AE4)", "T1 sequence": "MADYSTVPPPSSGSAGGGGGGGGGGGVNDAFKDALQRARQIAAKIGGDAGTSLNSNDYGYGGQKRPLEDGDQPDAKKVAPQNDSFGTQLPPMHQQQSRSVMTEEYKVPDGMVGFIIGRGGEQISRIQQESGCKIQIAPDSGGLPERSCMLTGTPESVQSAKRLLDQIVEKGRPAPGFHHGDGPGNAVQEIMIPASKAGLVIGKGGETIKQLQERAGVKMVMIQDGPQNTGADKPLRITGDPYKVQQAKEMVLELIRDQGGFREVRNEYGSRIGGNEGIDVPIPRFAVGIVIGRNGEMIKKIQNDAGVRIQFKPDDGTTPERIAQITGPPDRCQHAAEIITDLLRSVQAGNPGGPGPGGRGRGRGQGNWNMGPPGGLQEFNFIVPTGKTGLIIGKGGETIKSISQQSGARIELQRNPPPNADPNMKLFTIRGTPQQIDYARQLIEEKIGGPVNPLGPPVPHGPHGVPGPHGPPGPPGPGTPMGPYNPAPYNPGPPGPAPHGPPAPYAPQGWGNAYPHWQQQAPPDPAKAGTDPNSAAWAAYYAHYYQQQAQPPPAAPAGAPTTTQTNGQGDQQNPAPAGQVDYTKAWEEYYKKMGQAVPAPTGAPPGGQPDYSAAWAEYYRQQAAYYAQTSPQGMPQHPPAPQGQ", "summary_of_the_method": "(§1)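 Free RNA oligos (0 nM to 30 μM) were pre-incubated with HEK293-FT lysate (2.5 mg protein/well) for 1 h at 4°C, followed by 30 min at 4°C with the same 5′-amino-C6 oligos coupled to NHS-Sepharose beads. Bound proteins were quantified by label-free LC-MS/MS and normalised to the control. EC50 was derived from a four-parameter log-logistic fit, and Kd was obtained by multiplying EC50 by a protein-dependent depletion factor.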"}, "SRRM2": {"target": "SRRM2 (UniProt Q9UQ35)", "sequence (Q9UQ35 whole entry)": "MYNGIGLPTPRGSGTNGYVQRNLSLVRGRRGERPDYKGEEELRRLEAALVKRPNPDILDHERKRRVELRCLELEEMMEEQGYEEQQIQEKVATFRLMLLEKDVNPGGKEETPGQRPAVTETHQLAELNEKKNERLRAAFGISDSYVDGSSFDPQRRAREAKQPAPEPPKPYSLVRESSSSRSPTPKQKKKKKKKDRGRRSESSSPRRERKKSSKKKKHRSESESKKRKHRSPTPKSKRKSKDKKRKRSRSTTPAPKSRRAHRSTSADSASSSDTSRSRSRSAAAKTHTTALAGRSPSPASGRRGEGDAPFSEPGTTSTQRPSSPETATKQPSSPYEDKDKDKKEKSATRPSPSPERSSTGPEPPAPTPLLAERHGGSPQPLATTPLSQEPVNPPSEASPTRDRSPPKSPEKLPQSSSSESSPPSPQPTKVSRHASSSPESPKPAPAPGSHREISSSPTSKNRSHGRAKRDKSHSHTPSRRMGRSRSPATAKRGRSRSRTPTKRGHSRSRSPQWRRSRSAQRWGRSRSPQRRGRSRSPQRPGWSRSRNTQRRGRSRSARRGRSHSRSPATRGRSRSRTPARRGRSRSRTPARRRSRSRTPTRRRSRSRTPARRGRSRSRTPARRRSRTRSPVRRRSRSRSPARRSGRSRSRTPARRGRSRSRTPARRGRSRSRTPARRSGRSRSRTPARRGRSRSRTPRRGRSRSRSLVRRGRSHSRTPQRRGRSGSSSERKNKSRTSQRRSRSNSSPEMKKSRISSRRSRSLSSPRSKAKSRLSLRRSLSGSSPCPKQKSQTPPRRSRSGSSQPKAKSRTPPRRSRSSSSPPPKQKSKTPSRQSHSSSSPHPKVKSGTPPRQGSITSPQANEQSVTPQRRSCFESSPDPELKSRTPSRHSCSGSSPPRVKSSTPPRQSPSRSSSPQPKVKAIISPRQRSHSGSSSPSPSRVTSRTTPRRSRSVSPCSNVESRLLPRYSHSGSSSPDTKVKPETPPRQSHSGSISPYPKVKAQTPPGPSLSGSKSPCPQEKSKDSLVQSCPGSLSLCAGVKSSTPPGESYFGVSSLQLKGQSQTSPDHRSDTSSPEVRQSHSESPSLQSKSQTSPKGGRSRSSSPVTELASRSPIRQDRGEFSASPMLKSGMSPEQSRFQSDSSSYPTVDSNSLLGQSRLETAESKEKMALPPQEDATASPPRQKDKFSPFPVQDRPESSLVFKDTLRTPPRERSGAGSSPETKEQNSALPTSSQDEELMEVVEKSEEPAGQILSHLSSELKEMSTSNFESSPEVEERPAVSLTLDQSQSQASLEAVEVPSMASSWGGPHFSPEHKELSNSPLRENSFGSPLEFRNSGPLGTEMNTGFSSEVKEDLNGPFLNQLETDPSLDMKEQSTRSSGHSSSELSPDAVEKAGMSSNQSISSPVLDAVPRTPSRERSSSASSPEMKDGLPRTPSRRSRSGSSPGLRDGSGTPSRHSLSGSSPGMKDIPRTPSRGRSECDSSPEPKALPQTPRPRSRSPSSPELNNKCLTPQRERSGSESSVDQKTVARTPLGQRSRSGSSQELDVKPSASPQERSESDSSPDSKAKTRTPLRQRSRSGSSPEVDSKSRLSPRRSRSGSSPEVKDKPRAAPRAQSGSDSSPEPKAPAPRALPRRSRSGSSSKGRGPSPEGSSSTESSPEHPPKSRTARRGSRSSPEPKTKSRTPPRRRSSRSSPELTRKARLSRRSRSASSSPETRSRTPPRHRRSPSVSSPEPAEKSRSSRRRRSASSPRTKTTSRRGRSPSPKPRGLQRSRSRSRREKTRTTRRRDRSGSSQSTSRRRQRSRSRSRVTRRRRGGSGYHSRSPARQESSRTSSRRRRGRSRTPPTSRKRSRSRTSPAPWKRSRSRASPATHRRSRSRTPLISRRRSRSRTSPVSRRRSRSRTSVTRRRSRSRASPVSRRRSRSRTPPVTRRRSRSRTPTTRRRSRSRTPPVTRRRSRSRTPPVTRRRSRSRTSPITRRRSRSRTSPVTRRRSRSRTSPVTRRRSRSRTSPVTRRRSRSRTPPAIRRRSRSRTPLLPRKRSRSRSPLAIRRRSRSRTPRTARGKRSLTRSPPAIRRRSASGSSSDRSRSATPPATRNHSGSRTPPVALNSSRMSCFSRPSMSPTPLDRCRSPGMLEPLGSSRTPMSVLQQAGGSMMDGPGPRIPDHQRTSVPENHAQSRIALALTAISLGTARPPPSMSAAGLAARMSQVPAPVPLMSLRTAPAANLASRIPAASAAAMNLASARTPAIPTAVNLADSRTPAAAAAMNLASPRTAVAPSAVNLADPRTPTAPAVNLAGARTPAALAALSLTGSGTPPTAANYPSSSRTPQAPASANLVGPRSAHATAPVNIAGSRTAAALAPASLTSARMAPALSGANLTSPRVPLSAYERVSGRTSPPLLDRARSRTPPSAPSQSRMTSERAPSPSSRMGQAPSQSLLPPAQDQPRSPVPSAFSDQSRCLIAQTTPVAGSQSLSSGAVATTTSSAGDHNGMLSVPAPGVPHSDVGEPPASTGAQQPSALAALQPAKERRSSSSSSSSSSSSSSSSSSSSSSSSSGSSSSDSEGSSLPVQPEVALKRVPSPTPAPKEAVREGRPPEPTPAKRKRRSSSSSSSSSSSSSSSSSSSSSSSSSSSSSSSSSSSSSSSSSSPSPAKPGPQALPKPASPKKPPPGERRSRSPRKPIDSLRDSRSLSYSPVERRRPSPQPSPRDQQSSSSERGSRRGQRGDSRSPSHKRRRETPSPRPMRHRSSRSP", "summary_of_the_method": "as §1"}, "GPALPP1": {"target": "T2, GPALPP1 (UniProt Q8IXQ4)", "T2 sequence": "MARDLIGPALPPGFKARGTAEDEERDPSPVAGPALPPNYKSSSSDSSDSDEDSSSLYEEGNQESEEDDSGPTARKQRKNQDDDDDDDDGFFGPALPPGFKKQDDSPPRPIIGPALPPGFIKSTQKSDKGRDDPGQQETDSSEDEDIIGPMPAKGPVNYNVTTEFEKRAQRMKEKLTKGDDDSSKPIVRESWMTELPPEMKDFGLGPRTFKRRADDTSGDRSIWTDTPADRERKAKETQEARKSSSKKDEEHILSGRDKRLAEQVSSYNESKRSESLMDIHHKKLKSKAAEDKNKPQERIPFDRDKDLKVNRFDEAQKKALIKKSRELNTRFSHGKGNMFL", "summary_of_the_method": "as §1"}, "HMGB2": {"target": "T3, HMGB2 (UniProt P26583)", "T3 sequence": "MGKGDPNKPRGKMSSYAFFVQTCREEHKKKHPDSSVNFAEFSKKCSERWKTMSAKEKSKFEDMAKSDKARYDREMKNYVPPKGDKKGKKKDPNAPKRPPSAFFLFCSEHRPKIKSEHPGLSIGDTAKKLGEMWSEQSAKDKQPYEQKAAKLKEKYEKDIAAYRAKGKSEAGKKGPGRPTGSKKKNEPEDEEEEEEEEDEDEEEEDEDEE", "summary_of_the_method": "as §1"}, "P4HA2": {"target": "P4HA2 (UniProt O15460)", "sequence (O15460 whole entry)": "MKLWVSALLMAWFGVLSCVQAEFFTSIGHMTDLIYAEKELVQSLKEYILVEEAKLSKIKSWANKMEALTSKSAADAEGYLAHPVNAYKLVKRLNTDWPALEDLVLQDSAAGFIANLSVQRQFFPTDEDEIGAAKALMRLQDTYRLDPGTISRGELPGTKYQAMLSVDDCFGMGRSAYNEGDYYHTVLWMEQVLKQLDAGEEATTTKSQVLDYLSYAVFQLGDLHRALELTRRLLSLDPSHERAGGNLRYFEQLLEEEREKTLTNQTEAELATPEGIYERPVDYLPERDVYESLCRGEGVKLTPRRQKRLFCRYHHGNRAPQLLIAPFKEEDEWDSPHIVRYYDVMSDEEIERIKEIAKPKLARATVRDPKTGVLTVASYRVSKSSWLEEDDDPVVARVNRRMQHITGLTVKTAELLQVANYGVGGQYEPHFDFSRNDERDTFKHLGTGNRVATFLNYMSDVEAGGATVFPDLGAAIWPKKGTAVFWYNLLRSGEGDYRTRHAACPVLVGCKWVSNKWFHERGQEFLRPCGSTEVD", "summary_of_the_method": "as §1"}, "RPSA": {"target": "RPSA (UniProt P08865)", "summary_of_the_method": "as §1"}, "MRPL12": {"target": "MRPL12 (UniProt P52815)", "summary_of_the_method": "as §1"}, "MRPL21": {"target": "MRPL21 (UniProt Q7Z2W9)", "summary_of_the_method": "as §1"}, "ATIC": {"target": "ATIC (UniProt P31939)", "sequence (P31939 whole entry, looked up)": "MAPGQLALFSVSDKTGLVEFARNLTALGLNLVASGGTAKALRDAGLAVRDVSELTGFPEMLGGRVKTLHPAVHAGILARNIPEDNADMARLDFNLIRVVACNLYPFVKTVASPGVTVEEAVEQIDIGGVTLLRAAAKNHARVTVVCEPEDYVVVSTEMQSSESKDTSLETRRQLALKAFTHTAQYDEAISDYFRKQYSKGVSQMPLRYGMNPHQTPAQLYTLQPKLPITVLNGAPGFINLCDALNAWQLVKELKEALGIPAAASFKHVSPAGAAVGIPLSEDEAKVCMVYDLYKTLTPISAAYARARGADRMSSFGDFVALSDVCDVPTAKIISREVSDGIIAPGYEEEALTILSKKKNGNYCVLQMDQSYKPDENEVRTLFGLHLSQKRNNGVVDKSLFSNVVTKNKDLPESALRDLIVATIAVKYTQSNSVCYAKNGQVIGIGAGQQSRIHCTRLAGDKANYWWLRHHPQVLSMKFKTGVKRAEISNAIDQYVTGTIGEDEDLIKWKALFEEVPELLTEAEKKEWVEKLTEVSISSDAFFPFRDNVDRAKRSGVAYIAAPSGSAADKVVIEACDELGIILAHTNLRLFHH", "summary_of_the_method": "as §1"}, "RBM38": {"target": "T4, RBM38 (UniProt Q9H0Z9)", "T4 sequence": "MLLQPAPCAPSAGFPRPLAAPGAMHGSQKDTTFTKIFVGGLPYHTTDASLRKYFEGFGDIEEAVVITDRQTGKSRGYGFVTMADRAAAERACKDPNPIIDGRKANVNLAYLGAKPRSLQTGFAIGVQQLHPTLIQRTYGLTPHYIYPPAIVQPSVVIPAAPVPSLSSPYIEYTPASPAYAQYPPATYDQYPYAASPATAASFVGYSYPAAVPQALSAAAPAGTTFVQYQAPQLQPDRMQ", "summary_of_the_method": "as §1"}, "PPIE": {"target": "PPIE (UniProt Q9UNP9)", "sequence (Q9UNP9 whole entry)": "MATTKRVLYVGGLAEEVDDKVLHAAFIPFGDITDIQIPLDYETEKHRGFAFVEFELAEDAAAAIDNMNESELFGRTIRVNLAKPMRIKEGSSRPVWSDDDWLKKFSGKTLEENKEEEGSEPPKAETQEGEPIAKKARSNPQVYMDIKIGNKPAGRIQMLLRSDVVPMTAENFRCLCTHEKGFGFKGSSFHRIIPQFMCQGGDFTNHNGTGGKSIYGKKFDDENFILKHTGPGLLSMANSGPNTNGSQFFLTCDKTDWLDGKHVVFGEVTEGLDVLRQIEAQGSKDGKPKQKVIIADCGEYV", "summary_of_the_method": "as §1"}, "CNBP": {"target": "CNBP (UniProt P62633)", "sequence (P62633 whole entry)": "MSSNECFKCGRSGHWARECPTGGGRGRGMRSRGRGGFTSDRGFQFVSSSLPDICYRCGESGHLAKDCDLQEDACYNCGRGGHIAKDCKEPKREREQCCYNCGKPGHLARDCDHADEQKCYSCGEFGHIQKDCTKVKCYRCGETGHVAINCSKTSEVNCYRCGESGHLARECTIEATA", "summary_of_the_method": "as §1"}, "SKIV2L": {"target": "SKIV2L (UniProt Q15477)", "summary_of_the_method": "as §1"}, "TOE1": {"target": "TOE1 (UniProt Q96GM8)", "summary_of_the_method": "as §1"}}}
{"sequence": "AAUAAA", "values": [{"measurement": "Kd", "setting": "FUBP1", "result": 673, "unit": "nM"}, {"measurement": "Kd", "setting": "SRRM2", "result": 367, "unit": "nM"}, {"measurement": "Kd", "setting": "GPALPP1", "result": 33, "unit": "nM"}, {"measurement": "Kd", "setting": "HMGB2", "result": 2.05, "unit": "nM"}, {"measurement": "Kd", "setting": "P4HA2", "result": 37.5, "unit": "nM"}]}
{"sequence": "CUGUCCU", "values": [{"measurement": "Kd", "setting": "RPSA", "result": 187, "unit": "nM"}, {"measurement": "Kd", "setting": "MRPL12", "result": 43.7, "unit": "nM"}, {"measurement": "Kd", "setting": "MRPL21", "result": 57.2, "unit": "nM"}]}
{"sequence": "UAUUUAU", "values": [{"measurement": "Kd", "setting": "ATIC", "result": 523, "unit": "nM"}, {"measurement": "Kd", "setting": "RBM38", "result": 1270, "unit": "nM"}, {"measurement": "Kd", "setting": "PPIE", "result": 205, "unit": "nM"}, {"measurement": "Kd", "setting": "CNBP", "result": 1270, "unit": "nM"}, {"measurement": "Kd", "setting": "SKIV2L", "result": 902, "unit": "nM"}, {"measurement": "Kd", "setting": "TOE1", "result": 1020, "unit": "nM"}]}
